Measurements published in PMC3888107.

Columns and labels:
[1] = target: PR, mature HIV-1 protease containing the mutations Q7K, L33I, L63I, C67A, C95A (HIV-1); experiment: differential scanning calorimetry
[2] = target: ScPR, single-chain dimer of two PR monomers linked by a GGSSG sequence (HIV-1); experiment: differential scanning calorimetry
[3] = target: PR20, extreme drug-resistant mutant of mature HIV-1 protease (HIV-1); experiment: enzyme activity against protease concentration

Substance “RPB, substrate (CA/SP1) analogue inhibitor H-Arg-Val-Leu-(r)-Phe-Glu-Ala-Nle-NH2 (peptide)” has a ΔTm (I), Tm(+inhibitor)-Tm(−inhibitor) [1] of 9.2 °C and a ΔTm (I), Tm(+inhibitor)-Tm(−inhibitor) [2] of 7.8 °C.
In the case of “PR20, extreme drug-resistant mutant of mature HIV-1 protease (enzyme)”, the Kd [3] is reported as 29 nM.
